Measured values from patent US20210040184A1.

Assays:
[1] = biological target: Clade B BaL gp120 protein (HIV-1 Clade B, BaL); test: BLI (Octet), IgG on anti-hIgG Fc sensor, gp120 analyte, 1:1 fit
[2] = biological target: Clade C DU172.17 gp120 protein (HIV-1 Clade C, DU172.17); test: as above
[3] = biological target: Clade B BaL gp120 protein (HIV-1 Clade B, BaL); test: BLI (Octet), IgG on anti-hIgG Fc sensor, gp120 analyte, 1:1 fit; average of 4 runs
[4] = biological target: Clade C DU172.17 gp120 protein (HIV-1 Clade C, DU172.17); test: as above

Binder	Kd [1] [nM]	fold (KD vs average of 4 runs of L1A2) [1] [fold]	koff [1] [s⁻¹]	kon [1] [M⁻¹ s⁻¹]	Kd [2] [nM]	fold (KD vs average of 4 runs of L1A2) [2] [fold]	koff [2] [s⁻¹]	kon [2] [M⁻¹ s⁻¹]	Kd [3] [nM]	fold (KD vs average of 4 runs of L1A2) [3] [fold]	koff [3] [s⁻¹]	kon [3] [M⁻¹ s⁻¹]	Kd [4] [nM]	fold (KD vs average of 4 runs of L1A2) [4] [fold]	koff [4] [s⁻¹]	kon [4] [M⁻¹ s⁻¹]
Germ6 (antibody, V domains shown) VH: ADLVQSGAVVKKPGDSVRVSCEAQGYRFPDYIIHWIRRAPGQGPEWMGWMNPMGGQVNIPWKFQGRVSMTRDTSIETAYLDLRGLKSDDTAVYYCVRDRSNGSGKRFESSNWFLDLWGRGTAVTVQS VL: QSALTQPRSVSGSPGQSVTISCTGTHNLVSWCQHQPGRAPKLLIYDFNKRPSGVPDRFSGSGSGGTASLTISGLQDEDDAEYFCWAYEAFGGGTKLTVL	0.92	1.7	7.11e-05	77100	19.3	0.76	0.000466	24100	–	–	–	–	–	–	–	–
NVS49-L1A2 (antibody, V domains shown) VH: ADLVQSGAVVKKPGDSVRISCEAQGYRFPDYIIHWIRRAPGQGPEWMGWMNPMGGQVNIPWKFQGRVSMTRDTSIETAFLDLRGLKSDDTAVYYCVRDRSNGSGKRFESSNWFLDLWGRGTAVTIQS VL: QSALTQPRSVSASPGQSVTISCTGTHNLVSWCQHQPGRAPKLLIYDFNKRPSGVPDRFSGSGSGGTASLTITGLQDDDDAEYFCWAYEAFGGGTKLTVL	–	–	–	–	–	–	–	–	0.54	1	4.41e-05	81300	25.4	1	0.000526	21100
Germ12 (antibody, V domains shown) VH: QVDLVQSGAVVKKPGDSVRVSCEAQGYRFPDYIIHWIRRAPGQGPEWMGWMNPMGGQVNIPWKFQGRVSMTRDTSIETAYMDLRGLRSDDTAVYYCVRDRSNGSGKRFESSNWFLDLWGRGTLVTVSS VL: QSALTQPRSVSGSPGQSVTISCTGTHNLVSWCQHQPGRAPKLLIYDFNKRPSGVPDRFSGSGSGGTASLTISGLQDEDDAEYFCWAYEAFGGGTKLTVL	0.88	1.62	7.09e-05	80800	21.5	0.85	0.000438	20400	–	–	–	–	–	–	–	–
NglycoSA (antibody, V domains shown) VH: ADLVQSGAVVKKPGDSVRISCEAQGYRFPDYIIHWIRRAPGQGPEWMGWMNPMGGQVNIPWKFQGRVSMTRDTSIETAFLDLRGLKSDDTAVYYCVRDRSNGAGKRFESSNWFLDLWGRGTAVTIQS VL: QSALTQPRSVSASPGQSVTISCTGTHNLVSWCQHQPGRAPKLLIYDFNKRPSGVPDRFSGSGSGGTASLTITGLQDDDDAEYFCWAYEAFGGGTKLTVL	0.84	1.54	6.12e-05	73300	18.4	0.72	0.000303	16500	–	–	–	–	–	–	–	–
Hydro2 (antibody, V domains shown) VH: ADLVQSGAVVKKPGDSVRISCEAQGYRFPDYIIHWIRRAPGQGPEWMGWMNPMGGQVNIPQKFQGRVSMTRDTSIETAFLDLRGLKSDDTAVYYCVRDRSNGSGKRFESSNWFLDLWGRGTAVTIQS VL: QSALTQPRSVSASPGQSVTISCTGTHNLVSWCQHQPGRAPKLLIYDFNKRPSGVPDRFSGSGSGGTASLTITGLQDDDDAEYFCWAYENFGGGTKLTVL	0.96	1.77	7.18e-05	74700	55.5	2.18	0.000974	17600	–	–	–	–	–	–	–	–
NglycoNDplus6 (antibody, V domains shown) VH: ADLVQSGAVVKKPGDSVRISCEAQGYTFPDYIIHWIRRAPGQGPEWMGWMNPMGGQVNIPWKFQGRVSMTRDTSIETAFLDLRGLKSDDTAVYYCVRDRGDGSRRHFDSSNWFLDLWGRGTAVTIQS VL: QSALTQPRSVSASPGQSVTISCTGTHNLVSWCQHQPGRAPKLLIYDFNKRPSGVPDRFSGSGSGGTASLTITGLQDDDDAEYFCWAYEAFGGGTKLTVL	11.3	20.9	0.0006	53300	–	–	–	–	–	–	–	–	–	–	–	–
Germ23 (antibody, V domains shown) VH: QVQLVQSGAEVKKPGASVKVSCEASGYRFPDYIIHWIRRAPGQGPEWMGWMNPMGGQVNIPWKFQGRVSMTRDTSIETAYMELRGLRSDDTAVYYCVRDRSNGSGKRFESSNWFLDLWGRGTLVTVSS VL: QSALTQPRSVSGSPGQSVTISCTGTHNLVSWCQHHPGKAPKLMIYDFNKRPSGVPDRFSGSGSGGTASLTISGLQAEDEAEYFCWAYEAFGGGTKLTVL	0.97	1.79	7.66e-05	79100	22.4	0.88	0.000368	16400	–	–	–	–	–	–	–	–
NglycoND (antibody, V domains shown) VH: ADLVQSGAVVKKPGDSVRISCEAQGYRFPDYIIHWIRRAPGQGPEWMGWMNPMGGQVNIPWKFQGRVSMTRDTSIETAFLDLRGLKSDDTAVYYCVRDRSDGSGKRFESSNWFLDLWGRGTAVTIQS VL: QSALTQPRSVSASPGQSVTISCTGTHNLVSWCQHQPGRAPKLLIYDFNKRPSGVPDRFSGSGSGGTASLTITGLQDDDDAEYFCWAYEAFGGGTKLTVL	18.7	34.5	0.00128	68400	368	14.5	0.0183	49700	–	–	–	–	–	–	–	–
CysCV (antibody, V domains shown) VH: ADLVQSGAVVKKPGDSVRISCEAQGYRFPDYIIHWIRRAPGQGPEWMGWMNPMGGQVNIPWKFQGRVSMTRDTSIETAFLDLRGLKSDDTAVYYCVRDRSNGSGKRFESSNWFLDLWGRGTAVTIQS VL: QSALTQPRSVSASPGQSVTISCTGTHNLVSWVQHQPGRAPKLLIYDFNKRPSGVPDRFSGSGSGGTASLTITGLQDDDDAEYFCWAYEAFGGGTKLTVL	0.82	1.52	6.4e-05	77900	26.7	1.05	0.000495	18500	–	–	–	–	–	–	–	–
Germ17 (antibody, V domains shown) VH: QVDLVQSGAVVKKPGDSVRVSCEAQGYRFPDYIIHWIRRAPGQGPEWMGWMNPMGGQVNIPWKFQGRVSMTRDTSIETAYMDLRGLRSDDTAVYYCVRDRSNGSGKRFESSNWFLDLWGRGTLVTVSS VL: QSALTQPRSVSGSPGQSVTISCTGTHNLVSWCQHHPGKAPKLMIYDFNKRPSGVPDRFSGSGSGGTASLTISGLQAEDEAEYFCWAYEAFGGGTKLTVL	0.65	1.2	5.15e-05	79300	17.5	0.69	0.000331	18900	–	–	–	–	–	–	–	–
Germ18 (antibody, V domains shown) VH: QVQLVQSGAEVKKPGASVKVSCEASGYRFPDYIIHWIRRAPGQGPEWMGWMNPMGGQVNIPWKFQGRVSMTRDTSIETAYMELRGLRSDDTAVYYCVRDRSNGSGKRFESSNWFLDLWGRGTLVTVSS VL: QSALTQPRSVSGSPGQSVTISCTGTHNLVSWCQHQPGRAPKLLIYDFNKRPSGVPDRFSGSGSGGTASLTISGLQDEDDAEYFCWAYEAFGGGTKLTVL	0.98	1.81	7.09e-05	72200	21.3	0.84	0.000415	19500	–	–	–	–	–	–	–	–
CysCA (antibody, V domains shown) VH: ADLVQSGAVVKKPGDSVRISCEAQGYRFPDYIIHWIRRAPGQGPEWMGWMNPMGGQVNIPWKFQGRVSMTRDTSIETAFLDLRGLKSDDTAVYYCVRDRSNGSGKRFESSNWFLDLWGRGTAVTIQS VL: QSALTQPRSVSASPGQSVTISCTGTHNLVSWAQHQPGRAPKLLIYDFNKRPSGVPDRFSGSGSGGTASLTITGLQDDDDAEYFCWAYEAFGGGTKLTVL	1.1	2.03	8.01e-05	71900	19.6	0.77	0.000446	22800	–	–	–	–	–	–	–	–
Germ12_NglycoSA_CysCA (antibody, V domains shown) VH: QVDLVQSGAVVKKPGDSVRVSCEAQGYRFPDYIIHWIRRAPGQGPEWMGWMNPMGGQVNIPWKFQGRVSMTRDTSIETAYMDLRGLRSDDTAVYYCVRDRSNGAGKRFESSNWFLDLWGRGTLVTVSS VL: QSALTQPRSVSGSPGQSVTISCTGTHNLVSWAQHQPGRAPKLLIYDFNKRPSGVPDRFSGSGSGGTASLTISGLQDEDDAEYFCWAYEAFGGGTKLTVL	0.63	1.16	4.92e-05	78300	18.1	0.71	0.000337	18600	–	–	–	–	–	–	–	–
